According to patent publication US20250270304A1 (PHENOMIC AI, published 2025):

T1: Latent Activin A (human, UniProt P08476 21-426, limits assumed)
T1 construct: also called INHBA latent
T1 sequence: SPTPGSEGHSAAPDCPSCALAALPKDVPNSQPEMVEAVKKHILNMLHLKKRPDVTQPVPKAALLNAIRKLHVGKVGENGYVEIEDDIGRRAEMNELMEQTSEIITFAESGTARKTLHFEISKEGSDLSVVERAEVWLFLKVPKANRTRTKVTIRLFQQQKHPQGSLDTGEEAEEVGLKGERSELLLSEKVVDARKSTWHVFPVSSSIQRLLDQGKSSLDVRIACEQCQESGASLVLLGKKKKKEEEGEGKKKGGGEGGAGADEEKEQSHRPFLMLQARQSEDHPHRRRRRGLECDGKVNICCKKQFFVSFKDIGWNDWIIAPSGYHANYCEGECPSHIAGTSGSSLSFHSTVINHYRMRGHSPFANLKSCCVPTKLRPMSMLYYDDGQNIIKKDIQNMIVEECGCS

T2: Activin B (Homo sapiens (Human), UniProt P09529 293-407)
T2 construct: also called Mature Activin B; mature Activin B
T2 sequence: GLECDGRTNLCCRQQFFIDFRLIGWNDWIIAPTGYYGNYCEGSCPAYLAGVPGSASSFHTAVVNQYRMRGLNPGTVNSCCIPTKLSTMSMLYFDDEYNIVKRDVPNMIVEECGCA

T3: Mature Activin A (human, UniProt P08476 311-426)
T3 construct: also called active Activin A; INHBA mature
T3 sequence: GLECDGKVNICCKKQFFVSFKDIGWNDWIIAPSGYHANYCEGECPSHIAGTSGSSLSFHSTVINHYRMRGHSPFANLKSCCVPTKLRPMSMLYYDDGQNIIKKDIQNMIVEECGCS

T4: Inhibin A (Homo sapiens (Human), UniProt P05111 233-366; P08476 311-426)
T4 sequence 1: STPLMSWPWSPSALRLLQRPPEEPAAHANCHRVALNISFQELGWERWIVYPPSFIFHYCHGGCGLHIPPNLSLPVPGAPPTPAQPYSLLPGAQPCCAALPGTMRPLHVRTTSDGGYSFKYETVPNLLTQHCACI
T4 sequence 2: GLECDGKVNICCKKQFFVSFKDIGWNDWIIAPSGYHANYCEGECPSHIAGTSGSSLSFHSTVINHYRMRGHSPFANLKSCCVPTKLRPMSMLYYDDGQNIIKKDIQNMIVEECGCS

T5: Inhibin B (Homo sapiens (Human), UniProt P05111 233-366; P09529 293-407)
T5 sequence 1: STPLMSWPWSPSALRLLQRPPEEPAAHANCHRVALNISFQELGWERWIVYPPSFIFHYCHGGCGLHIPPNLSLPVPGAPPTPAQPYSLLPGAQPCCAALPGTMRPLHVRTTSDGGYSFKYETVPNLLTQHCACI
T5 sequence 2: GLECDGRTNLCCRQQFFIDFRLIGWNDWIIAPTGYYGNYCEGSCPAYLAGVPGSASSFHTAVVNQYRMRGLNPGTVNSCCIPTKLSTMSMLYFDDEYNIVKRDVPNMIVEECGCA


What was measured:
[1] = molecular target: T1, Latent Activin A; experiment: ELISA, coated antigen, OD450
[2] = molecular target: T2, Activin B; experiment: ELISA, coated antigen, OD450
[3] = molecular target: T3, Mature Activin A; experiment: ELISA, coated antigen, OD450
[4] = molecular target: T4, Inhibin A; experiment: ELISA, coated antigen, OD450
[5] = molecular target: T2, Activin B; experiment: ELISA, coated antigen, OD450; remark: listed apart in the source
[6] = molecular target: T4, Inhibin A; experiment: ELISA, coated antigen, OD450; remark: listed apart in the source
[7] = molecular target: T1, Latent Activin A; experiment: ELISA dose-response, coated antigen
Protocol: (§1) Antibodies were re-expressed in 40 mL cultures of Expi293 cells and purified using protein G magnetic sepharose beads (Cytiva, Marlborough, MA) to provide larger quantities for secondary screening. Secondary screening included dose responses in both functional assays described above (SMAD nuclear localization and fibroblast activations assays) as well as in binding assays to the same antigens listed in Table 3. Plates were coated with 25 μL of 3 μg/mL antigen in 384-well Maxisorp plates overnight at 4° C. with agitation. The next day, the samples in the plates were blocked with 70 μL blocking buffer (PBS+1% BSA+0.1% Tween-20) for 2 hours at room temperature. Plates were then washed three times with 100 μL of wash buffer (PBS+0.1% Tween-20). Primary antibodies in Expi293 expression medium were diluted 1:3 in blocking buffer, 25 μL added per well, and the plates were incubated for an hour at room temperature with agitation. Plates were then washed three times and 25 μL of secondary antibody (goat anti-Human IgG, HRP conjugated; Jackson Immunoresearch) diluted 1:5000 in blocking buffer was added for 30 minutes at room temperature. The wells in the plates were washed six times with wash buffer and TMB substrate was added followed by 1 M H3PO4.

[8] = molecular target: T3, Mature Activin A; experiment: ELISA dose-response, coated antigen
Protocol: as §1

[9] = molecular target: T2, Activin B; experiment: ELISA, coated antigen, OD450; secondary screen, single OD 450 reading as fold over negative control; below the 1.40-fold cut-off, so not a binder
Protocol: as §1

[10] = molecular target: T2, Activin B; experiment: ELISA dose-response, coated antigen
Protocol: as §1

[11] = molecular target: T4, Inhibin A; experiment: ELISA dose-response, coated antigen (row 'Inhibin')
Protocol: as §1

[12] = molecular target: T2, Activin B; experiment: ELISA, coated antigen, OD450; secondary screen, single OD 450 reading as fold over negative control; below the 1.40-fold cut-off
Protocol: as §1

[13] = molecular target: T5, Inhibin B; experiment: the assays described above
[14] = molecular target: T2, Activin B; experiment: ELISA dose-response, coated antigen; dose-response ELISA, 1:3 dilutions from 133 nM; weak binding within the tested range
Protocol: as §1

[15] = molecular target: T1, Latent Activin A; experiment: ELISA, coated antigen, OD450; negative control antibody
Protocol: as §1

[16] = molecular target: T2, Activin B; experiment: as above
Protocol: as §1

[17] = molecular target: T3, Mature Activin A; experiment: as above
Protocol: as §1

[18] = molecular target: T4, Inhibin A; experiment: as above
Protocol: as §1

Binder	fold-change of OD 450 over negative control (BSA) [1]	fold-change of OD 450 over negative control (BSA) [2]	fold-change of OD 450 over negative control (BSA) [3]	fold-change of OD 450 over negative control (BSA) [4]	binding result [5]	binding result [6]	EC50 [7]	EC50 [8]	fold-change of OD 450 over negative control (BSA) [9]	EC50 [10]	EC50 [11]	fold-change of OD 450 over negative control (BSA) [12]	binding result [13]	EC50 [14]	binding result [15]	binding result [16]	binding result [17]	binding result [18]
AB350 (antibody, IgG1, V domains shown) VH: QVQLQESGPGLVKPSQTLSLTCTVSGVSLSDARMGVNWIRQPPGKGLEWIGYVSTTGTTDYNPSLKSRVTMSVDTSKNQFSLKVNSVTAADTAVYYCARAGYPDVWGKGTLVTVSS VL: EIVMTQSPATLSLSPGERATLSCRASESVRSNLAWYQQKPGQAPRLLIYGASNRASGIPARFSGSGSGTDFTLTISSLEPEDFAVYYCQQYHTWPPWAFGGGTKVEIK	7.33 fold	0.74 fold	10.6 fold	0.65 fold	no binding (tested: 1.40-fold over BSA)	no binding (tested: 1.40-fold over BSA)												
AB342 (antibody, IgG1, V domains shown) VH: EVQLVESGGGLVQPGGSLRLSCAASGFDFGEHWMSWVRQAPGKGLELVASIKGDASDTYYPDSVKGRFTISRDNAKNSLYLQMNSLRAEDTAVYYCVKDLSKQWLGIDYWGQGTLVTVSS VL: DIVMTQSPLSLPVTPGEPASISCRSSQSLLHSNEKNYLHWYLQKPGQSPQLLIYDASKRASGVPDRFSGSGSGTDFTLKISRVEAEDVGVYYCVQDLHTPFTFGGGTKVEIK	7 fold		7.81 fold	0.36 fold			48.6 nM	4.89 nM	0.43 fold									
AB843 (antibody, IgG1, V domains shown) VH: EVQLVQSGAEVKKPGASVKVSCKASGDTSSHSHIHWVRQAPGQGLEWMGWINPRSGATNYAQKLQGRGTMTTDPSTSTAYMELRSLRSDDTAVYYCARDRGGRTNGVGAFDIWGQGTMVTVSS VL: ESALTQPASVSGSPGQSITISCTGTSGDIGRYNYVSWYQQHPGKAPKLMIYEDIERPSGVSNRFSGSKSGNTASLTISGLQAEDEADYYCQVWDATLDLVFGGGTKLTVL	24.9 fold	24.6 fold	24.7 fold	22.9 fold			0.04 nM	0.02 nM		0.03 nM	0.05 nM							
Control 1 (antibody, V domains shown, also called AMGA1; Amga1) VH: QVQLVQSGAEVKKPGASVKVSCKASGYTFTSYGLSWVRQAPGQGLEWMGWIIPYNGNTNSAQKLQGRVTMTTDTSTSTAYMELRSLRSDDTAVYFCARDRDYGVNYDAFDIWGQGTMVTVSS VL: not shown	18.7 fold		16.3 fold	11.7 fold			0.03 nM	0.03 nM			0.02 nM	0.57 fold	no binding					
Control 2 (antibody, human IgG4 S228P, kappa, V domains shown, also called garetosmab; Garetosmab) VH: QVQLQESGPGLVKPSETLSLTCTVSGGSFSSHFWSWIRQPPGKGLEWIGYILYTGGTSFNPSLKSRVSMSVGTSKNQFSLKLSSVTAADTAVYYCARARSGITFTGIIVPGSFDIWGQGTMVTVSS VL: not shown	21.6 fold		21 fold	15.9 fold			0.04 nM	0.07 nM			2.08 nM	0.71 fold		11.2 nM				
Control 3 (antibody, human IgG1, kappa, V domains shown, Negative control antibody; also called palivizumab) VH: QVTLRESGPALVKPTQTLTLTCTFSGFSLSTSGMSVGWIRQPPGKALEWLADIWWDDKKDYNPSLKSRLTISKDTSKNQVVLKVTNMDPADTATYYCARSMITNWYFDVWGAGTTVTVSS VL: DIQMTQSPSTLSASVGDRVTITCKCQLSVGYMHWYQQKPGKAPKLLIYDTSKLASGVPSRFSGSGSGTEFTLTISSLQPDDFATYYCFQGSGYPFTFGGGTKLEIKR															no binding	no binding	no binding	no binding
AB852 (antibody, IgG1, V domains shown) VH: QVTLRESGPALVKPTQTLTLTCTVSGFSLSDTRWGVNWIRQPPGKALEWIGYINDRGTTDYNSALKSRLTISKDTSKNQVVLTMTNMDPVDTATYYCAHTLHTREFVGMDVWGQGTTVTVSS VL: DIVMTQSPDSLAVSLGERATINCKSSQSVLDTSTNRNYLAWYQQKPGQPPKLLIYGASIRAGGVPDRFSGSGSGTDFTLTISSLQAEDVAVYYCQQYETWPWTFGGGTKVEIK	6.01 fold		8.73 fold	0.94 fold			40.9 nM	2.73 nM				0.88 fold		21.3 nM				
